B1: TrxR 2: recombinant human thioredoxin reductase 2, selenoenzyme (protein, UniProt Q9NNW7 37-524, looked up)
Thioredoxin reductase 2, …: QRDYDLLVVGGGSGGLACAKEAAQLGRKVAVVDYVEPSPQGTRWGLGGTCVNVGCIPKKLMHQAALLGGLIQDAPNYGWEVAQPVPHDWRKMAEAVQNHVKSLNWGHRVQLQDRKVKYFNIKASFVDEHTVCGVAKGGKEILLSADHIIIATGGRPRYPTHIEGALEYGITSDDIFWLKESPGKTLVVGASYVALECAGFLTGIGLDTTIMMRSIPLRGFDQQMSSMVIEHMASHGTRFLRGCAPSRVRRLPDGQLQVTWEDSTTGKEDTGTFDTVLWAIGRVPDTRSLNLEKAGVDTSPDTQKILVDSREATSVPHIYAIGDVVEGRPELTPIAIMAGRLLVQRLFGGSSDLMDYDNVPTTVFTPLEYGCVGLSEEEAVARHGQEHVEVYHAHYKPLEFTVAGRDASQCYVKMVCLREPPQLVLGLHFLGPNAGEVTQGFALGIKCGASYAQVMRTVGIHPTCSEEVVKLRISKRSGLDPTVTGCUG
Kobs (5% (mol) catalyst, 2.5% (v/v) DMSO, 190 μM 3, Tris pH 7.8, 6 °C, uncatalyzed 0.014 ± 0.001): 0.035 ± 0.003 M⁻¹ s⁻¹
time until total completion of homodimerization (5% mol): 5 days
